# Data taken from publication PMC8495968, “Towards optimizing peptide-based inhibitors of protein–protein interactions: predictive saturation variation scanning (PreSaVS)” (RSC Chemical Biology, 2021).
# Target: MCL-1 (Homo sapiens), Q07820
# Test: ITC
# Conditions: modification not given
# Chain of MCL-1 (Homo sapiens), Q07820 (Q07820 whole entry): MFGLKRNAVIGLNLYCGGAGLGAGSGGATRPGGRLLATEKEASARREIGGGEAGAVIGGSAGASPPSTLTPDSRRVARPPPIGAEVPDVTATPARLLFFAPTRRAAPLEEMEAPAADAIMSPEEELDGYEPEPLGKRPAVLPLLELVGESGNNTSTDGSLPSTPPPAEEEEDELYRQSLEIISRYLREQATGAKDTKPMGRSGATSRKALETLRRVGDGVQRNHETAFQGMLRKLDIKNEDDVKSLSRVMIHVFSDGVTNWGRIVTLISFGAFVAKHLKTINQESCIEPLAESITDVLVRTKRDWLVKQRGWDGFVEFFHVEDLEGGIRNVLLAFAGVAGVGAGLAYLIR
row,Kd,Binder
1,1700 nM,"CAQFRRIGDKVNLRQKLLN [NOXA75–93 L78F 75-93, Q9JM54]"
2,800 nM,"CAQLRRIGDKFNLRQKLLN [NOXA75–93 V85F 75-93, Q9JM54]"
3,2400 nM,"CAQWRRIGDKVNLRQKLLN [NOXA75–93 L78W 75-93, Q9JM54]"

# Target: MCL-1 (Homo sapiens), Q07820
# Test: fluorescence anisotropy competition
# Conditions: modification not given
row,Binder,IC50
1,"CAQFRRIGDKVNLRQKLLN [NOXA75–93 L78F 75-93, Q9JM54]",2700 nM
2,"CAQWRRIGDKVNLRQKLLN [NOXA75–93 L78W 75-93, Q9JM54]",2200 nM

# The next lines start with the values.
row,IC50,Binder
1,> 100000 nM,"CAQYRRIGDKVNLRQKLLN [NOXA75–93 L78Y 75-93, Q9JM54]"
2,> 20000 nM,"CAQLRRIGDKFNLRQKLLN [NOXA75–93 V85F 75-93, Q9JM54]"
